Data published in publication PMC4893915.
Changes are numbered by the printed parent chain. Read-outs that look alike come from different tables or passages of the source.

B1: 1xGT (dsDNA)
DNA 1: TTCGATACACTTGTGGAATGTGTTTGATTTGTTAGCCCCG
DNA 2: CGGGGCTAACAAATCAAACACATTCCACAAGTGTATCGAA
B2: 2xGT (dsDNA)
DNA 1: B1 DNA 1 with T24G, T25G, G26A, T29G
DNA 2: B1 DNA 2 with A12C, C15T, A16C, A17C

What was measured:
Test in all cases: EMSA
[1] = biological target: T1, ΔL1 TEAD DBD (truncated L1 loop) (human, UniProt P28347 28-104, del52-63)
[2] = biological target: TEAD DBD, monomeric SEC fraction (F#61) (human, UniProt P28347 28-104)
[3] = biological target: TEAD DBD, multimeric SEC fraction (F#50) (human, UniProt P28347 28-104)
[4] = biological target: T1, ΔL1 TEAD DBD (truncated L1 loop); remark: listed apart in the source
TEAD DBD (before SEC) = TEAD DBD (before SEC) (human, UniProt P28347 28-104)

Binder	Kd [1]	binding result [2]	binding result [3]	Kd [4]	binding result (TEAD DBD (before SEC))
B1	7.9 ± 1.4 nM	binds	binds	–	–
B2	–	binds	binds	8.7 nM	binds
